Results taken from PMC5304201 (2017).

Biological target: Amyloid-beta 42 oligomers Abeta42 (Homo sapiens, UniProt P05067, biotinylated Abeta42 oligomers, HA-tagged NRX1beta)
Test: cell surface binding assay, Scatchard

Kd: 184 nM
B1: Neurexin-1beta S4(-) (protein)
chain: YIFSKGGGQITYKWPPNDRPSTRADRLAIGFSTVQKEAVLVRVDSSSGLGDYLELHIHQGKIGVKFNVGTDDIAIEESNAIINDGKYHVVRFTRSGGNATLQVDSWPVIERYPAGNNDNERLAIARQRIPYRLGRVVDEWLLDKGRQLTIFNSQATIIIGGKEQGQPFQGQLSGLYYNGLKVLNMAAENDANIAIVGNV
